Data reported in patent EP1812465B1.
Each block holds one substance with its values, some of them ahead of it.

Tests used:
PRO87299(ECD)-Fc (human) = assay: Biacore; PRO87299(ECD)-Fc amine coupled (~9000 RU), HVEM injected at 2µg/ml, against the PR04346-Fc control flow cell
LIGHT expressed on cells = assay: radioligand binding to transfected cells, Scatchard analysis
[1] = target: PRO87299/LIGHT expressed together on cells (human); assay: radioligand binding to cells expressing PRO87299 and LIGHT together, Scatchard analysis
[2] = target: HVEM expressed on transfected 293 cells; assay: radioligand binding to transfected cells, Scatchard analysis
HVEM-Fc = assay: Biacore; HVEM-Fc amine coupled (~7500 RU), 8nM PRO87299(ECD)-Fc, read 105 seconds after injection
[3] = target: HVEM expressed on transfected 293 cells; assay: radioligand binding to transfected cells, displacement with unlabelled protein, Scatchard analysis

response units over control (response units) (PRO87299(ECD)-Fc (human)): 1200
Substance: HVEM (protein of the SPDI protein library) (receptor)

Substance: HVEM-Fc (Fc fusion)
Kd (LIGHT expressed on cells): 7 nM | Kd [1]: 0.5 nM

Kd [2]: 2.5 nM
Substance: I-125-LIGHT-FLAG (ligand)

Substance: PRO87299(ECD)-Fc (Fc fusion)
response units (HVEM-Fc): 100 RU | Kd [3]: 25 nM
